Tested on: Lenti-X 293T cells
Test: YFP fluorescence quenching anion reporter plate reader assay of engineered receptors stimulated with acetylcholine or a non-native ligand
Type: cell-based
Method in brief: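 YFP quench was followed for about 1 min 43 s after ligand delivered in iodide-based ECS, pH 7.2. Values are end-of-read fluorescence (last 10 s) divided by the pre-ligand baseline (15 s). Cells were LX293T, transfected with receptor DNA a day before the assay.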

B1: CODA806: engineered chimeric LGIC receptor, Y115D, L131Q in SEQ ID NO: 33 (protein)
chain: MRCSPGGVWLALAASLLHVSLQGEFQRKLYKELVKNYNPLERPVANDSQPLTVYFSLSLLQIMDVDEKNQVLTTNIWLQMSWTDHYLQWNVSEYPGVKTVRFPDGQIWKPDILLDNSADERFDATFHTNVQVNSSGHCQYLPPGIFKSSCPMDLKNFPMDVQTCKLKFGSWSYGGWSLDLQMQEADISGYIPNGEWDLVGIPGKRSERFYECCKEPYPDVTFTVTMRRRMGYYLIQMYIPSLLIVILSWISFWINMDAAPARVGLGITTVLTMTTQSSGSRASLPKVSYVKAIDIWMAVCLLFVFSALLEYAAVNFVSRQHKELLRFRRKRRHHKSPMLNLFQEDEAGEGRFNFSAYGMGPACLQAKDGISVKGANNSNTTNPPPAPSKSPEEMRKLFIQRAKKIDKISRIGFPMAFLIFNMFYWIIYKIVRREDVHNQ
modifications: synthetic sequence of chimeric LGIC
1 nM CNL001, first column
  YFP fluorescence quenching using CNL001: 6.587%
1 nM CNL001, second column
  YFP fluorescence quenching using CNL001: −5.179%
1 nM brd
  YFP fluorescence quenching using TC-5619/Bradanicline: 0.92%
3 nM brd
  YFP fluorescence quenching using TC-5619/Bradanicline: −4.65%
10 nM CNL001, first column
  YFP fluorescence quenching using CNL001: −2.366%
10 nM CNL001, second column
  YFP fluorescence quenching using CNL001: −1.272%
10 nM brd
  YFP fluorescence quenching using TC-5619/Bradanicline: 0.38%
30 nM brd
  YFP fluorescence quenching using TC-5619/Bradanicline: −8.96%
30 nM fac
  YFP fluorescence quenching using Facinicline: 41.32
50 nM CNL001, first column
  YFP fluorescence quenching using CNL001: 2.763%
50 nM CNL001, second column
  YFP fluorescence quenching using CNL001: 1.995%
50 nM abt
  YFP fluorescence quenching using ABT-126: −1.81%
100 nM CNL001, first column
  YFP fluorescence quenching using CNL001: 3.091%
100 nM CNL001, second column
  YFP fluorescence quenching using CNL001: 1.45%
100 nM CNL002
  YFP fluorescence quenching using CNL002: −10.03%
100 nM abt
  YFP fluorescence quenching using ABT-126: −2.61%
100 nM azd0328
  YFP fluorescence quenching using AZD-0328: 12.15%
100 nM brd
  YFP fluorescence quenching using TC-5619/Bradanicline: 12.18%
100 nM fac
  YFP fluorescence quenching using Facinicline: 59.51
300 nM abt
  YFP fluorescence quenching using ABT-126: −3.78%
300 nM azd0328
  YFP fluorescence quenching using AZD-0328: 30.92%
300 nM brd
  YFP fluorescence quenching using TC-5619/Bradanicline: −0.3%
300 nM fac
  YFP fluorescence quenching using Facinicline: 74.86
1 uM CNL001, first column
  YFP fluorescence quenching using CNL001: 7.331%
1 uM CNL001, second column
  YFP fluorescence quenching using CNL001: 9.103%
1 uM CNL002
  YFP fluorescence quenching using CNL002: −3.33%
1 uM abt
  YFP fluorescence quenching using ABT-126: −2.6%
1 uM brd
  YFP fluorescence quenching using TC-5619/Bradanicline: 45.47%
1 uM tc6987
  YFP fluorescence quenching using TC-6987: 38.83
10 uM fac
  YFP fluorescence quenching using Facinicline: 78.53
10 uM tc6987
  YFP fluorescence quenching using TC-6987: 31.59
30 uM CNL002
  YFP fluorescence quenching using CNL002: 6.96%
30 uM azd0328
  YFP fluorescence quenching using AZD-0328: 68.65%
30 uM fac
  YFP fluorescence quenching using Facinicline: 84.45
500 uM tc6987
  YFP fluorescence quenching using TC-6987: 29.83
Acetylcholine 10 uM
  percent quench of YFP fluorescence, 10 uM ach: 9.47%
Acetylcholine 100 uM
  percent quench of YFP fluorescence, 100 uM ach: 6.12%
Acetylcholine 1 mM
  percent quench of YFP fluorescence, 1 mM ach: −1.56%
Acetylcholine 3 mM
  percent quench of YFP fluorescence, 3 mM ach: 17.57%

Reference: patent publication US20240317834A1, “COMPOSITIONS AND METHODS FOR NEUROLOGICAL DISEASES” (CODA BIOTHERAPEUTICS, INC., priority 2020, published 2024)
